B1: PPFIA4 (parent)
chain: YAGNLHESGVHGALLALDENFDHN

Variants of: B1
Test: protein stability index of a GFP-peptide fusion (GPS, HEK-293T) (PSI 1-6); higher = more stable
Settings: c terminus: a fixed tail appended
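Note: lentivirally expressed fusions sorted by FACS into six bins by GFP to DsRed ratio, PSI derived from sequencing read proportions per bin multiplied by bin number.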

Protein stability index, by site and new letter:
S8: W 1.72; T 3.26; M 2.19; N 2.33; A 2.51; R 2.02; F 1.72; D 3.16; P 2.49; L 1.97; H 2.11; V 2.48; E 3.28; Q 2.71; I 2.21; G 2.12; K 2.67; Y 2.28; C 2.39
G9: E 3.49; H 2.65; I 1.49; M 3.23; S 2.63; N 3.1; C 2.05; T 2.9; R 2.31; V 2.98; D 3.69; L 2.1; P 3.59; A 2.46; Q 2.82; F 1.83; W 2.94; K 2.68; Y 2.34
G12: K 2.97; I 1.94; E 3.78; N 3.68; F 2.32; R 2.74; M 2.59; P 2.11; Q 3.56; C 2.13; H 2.71; L 2.73; D 3.74; A 2.77
V10: G 2.8; P 2.94; M 1.79; R 2.79; F 2.25; I 2.23; E 4.11; S 3.09; N 3.23; H 2.7; Y 2.31; C 2.06; W 2.73; K 2.97; A 3.11; L 2.35; Q 3.19; D 4.04; T 3.09
E7: P 1.95; K 1.52; V 1.93; T 2.24; H 1.77; C 1.67; F 2.77; W 2.91; R 1.44; L 2.34; A 1.9; I 1.54; S 2.58; Y 1.85; D 3.14; M 2.02; G 2; Q 2.13; N 1.81
H11: N 2.83; Q 3.59; P 2.57; I 1.66; T 2.59; W 3.06; K 3.33; C 1.22; A 3.06; S 2.9; E 3.19; V 1.88; Y 2.35; M 1.87; L 1.76; R 2.46; G 3.35; D 4.25; F 2.49
G3: Y 1.99; W 2.56
H6: T 2.83; D 2.72; I 2.23; Q 2.19; N 2.05; L 2.01; K 2.24; G 2.82; Y 1.88; V 2.5; S 2.27; R 1.92; E 3.7; P 2.98; A 2.78; F 1.99; C 2.92; M 2.09
L5: T 2.84; W 3.46; P 2.94; D 3.71; E 4.34; Q 2.94; M 2.23; C 2.58; V 2.12; Y 1.82; R 3.11; K 2.86; A 2.56; G 2.21; N 2.96; S 2.72; F 2.02; H 2.38; I 1.94
N4: F 1.75; D 3.55; P 2.77; R 1.93; H 2.73; E 3.82; Y 2.2; K 2.09; V 2.18; L 2.33; M 2.29; C 2.03; W 1.67; S 1.87; G 2.65; T 2.23; A 2.48; Q 3.69; I 2.53
